According to patent US20210188958A1 (JILIN UNIVERSITY, published 2021):

Experiments:
Experiment in all cases: indirect ELISA, peptide coated at 0.25 ug/well
[1] = molecular target: T1, synthetic peptide W4 (Trichinella spiralis)
T1 construct: also called Ts-WN10-W4
T1 peptide: TVSKCFEEVEEPLII

[2] = molecular target: T2, synthetic peptide W5 (Trichinella spiralis)
T2 construct: also called Ts-WN10-W5
T2 peptide: QILGETTHYGRNDP

[3] = molecular target: T3, synthetic peptide W6 (Trichinella spiralis)
T3 construct: also called Ts-WN10-W6
T3 peptide: ALFSSDSKEQSGVLH

[4] = molecular target: T4, synthetic peptide W7 (Trichinella spiralis)
T4 construct: also called Ts-WN10-W7
T4 peptide: HKLVELEESSTMGIL

[5] = molecular target: T5, synthetic peptide W8 (Trichinella spiralis)
T5 construct: also called Ts-WN10-W8
T5 peptide: CTLEYRHRTPSTATV

[6] = molecular target: T6, synthetic peptide W9 (Trichinella spiralis)
T6 construct: also called Ts-WN10-W9
T6 peptide: EEQVVSQRSQMLGGT

[7] = molecular target: T7, synthetic peptide W10 (Trichinella spiralis)
T7 construct: also called Ts-WN10-W10
T7 peptide: IFESDKKKSSGTYLL

[8] = molecular target: T8, synthetic peptide W11 (Trichinella spiralis)
T8 construct: also called Ts-WN10-W11
T8 peptide: KETECGIKEKAFNSY

[9] = molecular target: T9, synthetic peptide W12 (Trichinella spiralis)
T9 construct: also called Ts-WN10-W12
T9 peptide: EKAFNSYEDVYKNCS

[10] = molecular target: T10, synthetic peptide W13 (Trichinella spiralis)
T10 construct: also called Ts-WN10-W13
T10 peptide: DVYKNCSGSGDSKVC

[11] = molecular target: T11, synthetic peptide W14 (Trichinella spiralis)
T11 construct: also called Ts-WN10-W14
T11 peptide: VEYKYFDPTKSTVEC

[12] = molecular target: T12, synthetic peptide W1 (Trichinella spiralis)
T12 construct: also called Ts-WN10-W1
T12 peptide: ALFSSDLKQESGVFH

[13] = molecular target: T13, synthetic peptide W2 (Trichinella spiralis)
T13 construct: also called Ts-WN10-W2
T13 peptide: VNCQGEGRRKHCTME

[14] = molecular target: T14, synthetic peptide W3 (Trichinella spiralis)
T14 construct: also called Ts-WN10-W3
T14 peptide: TMEYTHRNPSKATVS

B1: WN10-1H9-Ab (antibody, V domains shown)
VH: QVQLQQPGSELVRPGASVKLSCKASGYTFTSYWMHWVKQRPGQGLEWIGNISPGSGNTNYDEKFKTKATLTVDTSSSTAYMQLSSLTSEDSAVYYCTRHGTVDYWGQGTTVTVSS
VL: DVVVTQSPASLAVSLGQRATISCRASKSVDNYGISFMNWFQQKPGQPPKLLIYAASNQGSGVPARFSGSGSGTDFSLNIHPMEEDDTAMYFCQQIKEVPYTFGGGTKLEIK
notes: Mouse monoclonal antibody; It was used as hybridoma supernatant in the ELISAs; also called 1H9 monoclonal antibody; monoclonal antibody generated by hybridoma cell line WN10-1H9 (CGMCC No. 18316)
B1 was tested, and the “OD 450 nm” value [1] was 0.171 OD 450 nm, the “OD 450 nm” value [2] was 0.286 OD 450 nm and the “OD 450 nm” value [3] was 0.127 OD 450 nm. The “OD 450 nm” value [4] was 0.162 OD 450 nm, the “OD 450 nm” value [5] was 0.152 OD 450 nm and the “OD 450 nm” value [6] was 0.144 OD 450 nm. The “OD 450 nm” value [7] was 0.161 OD 450 nm, the “OD 450 nm” value [8] was 0.147 OD 450 nm and the “OD 450 nm” value [9] was 0.16 OD 450 nm. For the same binder, the “OD 450 nm” value [10] was 0.166 OD 450 nm, the “OD 450 nm” value [11] was 0.158 OD 450 nm and the “OD 450 nm” value [12] was 0.0733 OD 450 nm. The “OD 450 nm” value [13] was 1.15 OD 450 nm and the “OD 450 nm” value [14] was 0.149 OD 450 nm.
